Data on 1 protein can be found in patent US20230295597.

For data set [1], the target named is T1, truncated recombinant human ADAMTS-13 variant (MDTCS), trADAMTS-13 WT.
T1 chain: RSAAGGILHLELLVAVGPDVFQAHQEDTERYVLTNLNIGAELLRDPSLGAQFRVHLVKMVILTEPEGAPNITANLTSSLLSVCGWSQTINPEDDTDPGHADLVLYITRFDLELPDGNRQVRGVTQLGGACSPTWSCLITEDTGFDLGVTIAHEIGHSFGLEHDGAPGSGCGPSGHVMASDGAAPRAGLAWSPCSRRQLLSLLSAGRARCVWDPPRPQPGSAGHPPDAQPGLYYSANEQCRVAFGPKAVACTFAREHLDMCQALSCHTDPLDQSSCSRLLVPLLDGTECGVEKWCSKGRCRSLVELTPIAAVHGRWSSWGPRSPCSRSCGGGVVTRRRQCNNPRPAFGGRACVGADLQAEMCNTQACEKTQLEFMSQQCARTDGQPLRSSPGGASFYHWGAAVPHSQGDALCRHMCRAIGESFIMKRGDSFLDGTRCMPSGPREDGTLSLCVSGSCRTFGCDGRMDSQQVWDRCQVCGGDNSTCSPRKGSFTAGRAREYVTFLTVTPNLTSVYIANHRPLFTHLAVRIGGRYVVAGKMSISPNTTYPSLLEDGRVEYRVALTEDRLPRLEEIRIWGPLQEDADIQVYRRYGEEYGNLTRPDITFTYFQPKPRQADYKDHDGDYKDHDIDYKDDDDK

Data set [2] deals with T2, trADAMTS-13^V313D (truncated ADAMTS-13 mutant, Val313 to Asp).
T2 chain: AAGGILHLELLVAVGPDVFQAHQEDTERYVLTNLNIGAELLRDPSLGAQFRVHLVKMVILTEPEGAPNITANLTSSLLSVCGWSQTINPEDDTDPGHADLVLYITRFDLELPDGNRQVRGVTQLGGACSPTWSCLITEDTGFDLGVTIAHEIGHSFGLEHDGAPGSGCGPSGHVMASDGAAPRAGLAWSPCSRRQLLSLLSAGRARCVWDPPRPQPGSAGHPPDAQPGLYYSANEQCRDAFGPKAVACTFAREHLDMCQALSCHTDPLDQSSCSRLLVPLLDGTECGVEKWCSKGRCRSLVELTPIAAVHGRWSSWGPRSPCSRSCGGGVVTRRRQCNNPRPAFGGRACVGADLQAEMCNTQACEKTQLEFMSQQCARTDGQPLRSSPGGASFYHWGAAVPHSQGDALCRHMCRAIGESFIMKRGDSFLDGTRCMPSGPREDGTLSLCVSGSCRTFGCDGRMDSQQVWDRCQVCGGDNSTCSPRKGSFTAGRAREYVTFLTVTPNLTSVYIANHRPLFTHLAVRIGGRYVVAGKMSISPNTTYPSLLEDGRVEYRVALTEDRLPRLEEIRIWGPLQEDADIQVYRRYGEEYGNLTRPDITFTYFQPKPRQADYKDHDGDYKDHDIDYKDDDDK

Data set [3] deals with T3, trADAMTS-13^R312A (truncated ADAMTS-13 mutant, Arg312 to Ala).
T3 chain: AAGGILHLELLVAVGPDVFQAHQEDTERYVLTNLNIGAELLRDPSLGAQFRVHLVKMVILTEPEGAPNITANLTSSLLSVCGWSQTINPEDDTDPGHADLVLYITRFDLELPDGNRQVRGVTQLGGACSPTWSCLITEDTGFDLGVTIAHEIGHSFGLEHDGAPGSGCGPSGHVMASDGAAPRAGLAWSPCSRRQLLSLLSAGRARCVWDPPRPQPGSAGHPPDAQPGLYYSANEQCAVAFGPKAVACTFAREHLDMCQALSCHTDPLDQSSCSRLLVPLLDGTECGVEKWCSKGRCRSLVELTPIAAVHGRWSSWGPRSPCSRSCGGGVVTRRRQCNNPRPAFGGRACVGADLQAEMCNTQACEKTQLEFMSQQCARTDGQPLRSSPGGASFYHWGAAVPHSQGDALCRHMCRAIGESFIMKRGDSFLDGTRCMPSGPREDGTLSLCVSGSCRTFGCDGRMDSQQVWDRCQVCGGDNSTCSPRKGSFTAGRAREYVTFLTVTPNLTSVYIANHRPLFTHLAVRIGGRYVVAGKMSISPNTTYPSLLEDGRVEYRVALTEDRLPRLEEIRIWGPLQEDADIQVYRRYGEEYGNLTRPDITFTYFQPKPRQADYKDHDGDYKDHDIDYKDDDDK

B1: tissue plasminogen activator (tPA) (protein)
chain: SYQVICRDEKTQMIYQQHQSWLRPVLRSNRVEYCWCNSGRAQCHSVPVKSCSEPRCFNGGTCQQALYFSDFVCQCPEGFAGKCCEIGNSDCYFGNGSAYRGTHSLTESGASCLPWNSMILIGKVYTAQNPSAQALGLGKHNYCRNPDGDAKPWCHVLKNRRLTWEYCDVPSCSTCGLRQYSQPQFRIKGGLFADIASHPWQAAIFAKHRRSPGERFLCGGILISSCWILSAAHCFQERFPPHHLTVILGRTYRVVPGEEEQKFEVEKYIVHKEFDDDTYDNDIALLQLKSDSSRCAQESSVVRTVCLPPADLQLPDWTECELSGYGKHEALSPFYSERLKEAHVRLYPSSRCTSQHLLNRTVTDNMLCAGDTRSGGPQANLHDACQGDSGGPLVCLNDGRMTLVGIISWGLGCGQKDVPGVYTKVTNYLDWIRDNMRP
Regarding B1, in data set [1], the “ADAMTS-13 activity with or without preincubation with tPA (technozym kit)” value was “the activity of both trADAMTS-13 and ADAMTS-13 WT was reduced in the presence of tPA (FIG. 4B)”; the “activity of trADAMTS-13 WT after 4 hr in soluble fibrin (2 uM) or PBS, without or with tPA (100 nM)” value is on record as “The addition of soluble fibrin reversed the tPA-mediated reduction in ADAMTS-13 activity (FIG. 14A)”; the “cleavage by tPA (Western blot) and residual proteolytic activity on vWF over time” value was “trADAMTS-13 was proteolyzed completely (FIG. 7A) and lost its catalytic activity (FIG. 7B)”; the “cleavage of trADAMTS-13 (500 nM) by tPA (100 nM), Western blot” value is “in the presence of tPA, it is cleaved (FIG. 4C)”. Besides, the “residual proteolytic activity on vWF after 6 hours with or without tPA” value in data set [2] was “trADAMTS-13^R312K and trADAMTS-13^V313D variants were resistant to inactivation by tPA”. Further, in data set [3], the “residual proteolytic activity on vWF after 6 hours with or without tPA” value was “tPA inhibited the proteolytic activity of trADAMTS-13^R312A and trADAMTS-13^V313A variants on vWF (FIG. 8)”.
